Earlier results as cited in article PMC4628734.

Biological target: Cdc25C (Homo sapiens) (UniProt P30307)
Chain of UniProt P30307 (P30307 whole entry, looked up): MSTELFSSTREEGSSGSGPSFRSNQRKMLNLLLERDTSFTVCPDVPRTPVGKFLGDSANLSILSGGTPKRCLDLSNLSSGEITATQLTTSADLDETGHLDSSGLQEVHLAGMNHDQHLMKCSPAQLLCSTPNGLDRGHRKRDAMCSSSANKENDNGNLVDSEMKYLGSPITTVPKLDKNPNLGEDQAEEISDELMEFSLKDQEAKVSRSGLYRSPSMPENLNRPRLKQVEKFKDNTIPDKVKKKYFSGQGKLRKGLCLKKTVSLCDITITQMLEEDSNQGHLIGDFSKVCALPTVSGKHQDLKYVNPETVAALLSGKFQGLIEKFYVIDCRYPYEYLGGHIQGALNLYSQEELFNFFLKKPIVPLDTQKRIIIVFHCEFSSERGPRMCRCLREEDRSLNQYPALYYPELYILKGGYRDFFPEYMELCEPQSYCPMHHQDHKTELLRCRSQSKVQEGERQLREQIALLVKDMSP

- Kd: 1800 nM
Substance: PLK-1 PBD (from UniProt P53350)
